# Literature values, collected in patent US20090145201A1, “METHODS AND APPARATUSES FOR REDUCING EFFECTS OF MOLECULE ADSORPTION WITHIN MICROFLUIDIC CHANNELS” (EKSIGENT TECHNOLOGIES, LLC, priority 2005, published 2009).
# Conditions: source: Cantor and Schimmel 1980, Biophysical Chemistry Part II
row,Molecule,Diffusion Coefficient
1,"[Cl-].[Na+] [NaCl, reference compound]",~1.5e−5 cm^2 · s^−1
2,"NCC(=O)O [glycine, reference compound]",9.33e−6 cm^2 · s^−1
3,"OC[C@H]1O[C@@](CO)(O[C@H]2O[C@H](CO)[C@@H](O)[C@H](O)[C@H]2O)[C@@H](O)[C@@H]1O [sucrose, reference compound]",4.59e−6 cm^2 · s^−1
4,Bovine serum albumin,6.01e−7 cm^2 · s^−1
5,Fibrinogen,1.98e−7 cm^2 · s^−1
6,Myosin,1.10e−7 cm^2 · s^−1
7,Tropomyosin,2.2e−7 cm^2 · s^−1
8,lysozyme,1.04e−6 cm^2 · s^−1
